Where “and” joins values, the source holds several entries; their conditions need not be identical. Identical values can stand only once.

B1: Geranylgeranylglyceryl phosphate synthase, O26652 (parent)
chain: MKVEDYFHDILRERKIHLTLIDPEEQTPEEAVEIARAAIRGGTDGIMLGGSTTDSSELDNTARALRENIDVPIILFPGNTTGVSRYADAIFFMSLLNSTNPYWIIGAQALGAATVKKMGIEALPMGYLVVEPGGTVGWVGDTKPVPRNKPDIAAAYAMAAEFLGMRLFYLEAGSGAPEHVPEEMIALVKRCTDQILIVGGGIRSGEDAARVAGAGADVVVTGTVVENSDNVEDKIREIVEGMGSV

Variants of B1 are the subject of one data set. Particulars: Methanothermobacter thermautotrophicus (strain ATCC 29096 / DSM 1053 / JCM 10044 / NBRC 100330 / Delta H); pH 7.5; Thermal; DSF; potassium phosphate buffer; reversible: no; structure 4MM1; whole UniProt chain shown.
One may read the Tm as the temperature at the midpoint of the melting transition. As to R85E, the melting temperature (Tm) came to 53.9 °C.
For K143A, the midpoint of thermal melting (Tm) is 66 °C.
The same measure, in the same setting: next, D54R: 52.2 °C.

Still in this data set, the particulars now being: Methanothermobacter thermautotrophicus (strain ATCC 29096 / DSM 1053 / JCM 10044 / NBRC 100330 / Delta H); pH 7.5; Thermal; DSC; potassium phosphate buffer; reversible: no; structure 4MM1; whole UniProt chain shown.
Take Y102A: the “unfolding enthalpy (calorimetric)” value was 104 kcal/mol and 108 kcal/mol.
Consider A159E, for which the Tm amounted to 64 °C and the “unfolding enthalpy (calorimetric)” value was 173 kcal/mol.
On to W138A, for which the “unfolding enthalpy (calorimetric)” value was 106 kcal/mol and 78.2 kcal/mol.
On to K143A, for which the “unfolding enthalpy (calorimetric)” value stood at 100 kcal/mol.
The same measure, in the same setting: next, D54R: 187 kcal/mol and 88 kcal/mol.
